{"source": "the DeepSol protein solubility set"}
{"experiment": "soluble on expression in E. coli; label from the status in PepcDB or PDB records"}
{"sequence": "SRSRPAGPALLLLLLFLGAAESVRRAQPPRRYTPDWPSLDSRPLPAWFDEAKFGVFIHWGVFSVPAWGSEWFWWHWQGEGRPQYQRFMRDNYPPGFSYADFGPQFTARFFHPEEWADLFQAAGAKYVVLTTKHHEGFTNWPSPVSWNWNSKDVGPHRDLVGELGTALRKRNIRYGLYHSLLEWFHPLYLLDKKNGFKTQHFVSAKTMPELYDLVNSYKPDLIWSDGEWECPDTYWNSTNFLSWLYNDSPVKDEVVVNDRWGQNCSCHHGGYYNCEDKFKPQSLPDHKWEMCTSIDKFSWGYRRDMALSDVTEESEIISELVQTVSLGGNYLLNIGPTKDGLIVPIFQERLLAVGKWLSINGEAIYASKPWRVQWEKNTTSVWYTSKGSAVYAIFLHWPENGVLNLESPITTSTTKITMLGIQGDLKWSTDPDKGLFISLPQLPPSAVPAEFAWTIKLTGVK", "soluble on expression in E. coli": "soluble"}
{"sequence": "SRVKKNVLDYNAWAEGTLKGIKQEKKAYKERHRLFFEGLSEAEKVEYATKMAHDAQIYDEPEFDPQELQSEYYRGLYAFDNRKNNVDSYK", "soluble on expression in E. coli": "soluble"}
{"sequence": "SRVSVTDYKRLLDSGAFHLLLDVRPQVEVDICRLPHALHIPLKHLERRDAESLKLLKEAIWEEKQGTQEGAAVPIYVICKLGNDSQKAVKILQSLSAAQELDPLTVRDVVGGLMAWAAKIDGTFPQY", "soluble on expression in E. coli": "soluble"}
{"sequence": "SSAAQPGVAFSVDNTIKRPNPAPGTRKKSSNAEVIKELNKCREENSMRLDLSKRSIHILPSSIKELTQLTELYLYSNKLQSLPAEVGCLVNLMTLALSENSLTSLPDSLDNLKKLRMLDLRHNKLREIPSVVYRLDSLTTLYLRFNRITTVEKDIKNLSKLSMLSIRENKIKQLPAEIGELCNLITLDVAHNQLEHLPKEIGNCTQITNLDLQHNELLDLPDTIGN", "soluble on expression in E. coli": "soluble"}
{"sequence": "SSEQAIIVSAINHSLAQFSCHLIDGVTGSGKTEVYLQSMEEVLANNQQVLVIVPEIGLTPQTLNRFEQRFNVPIALHHSGLNDKERLATWLSAQQGSAAIVIGTRSAVFTPLHRLGLIIIDEEHDSSLKQQDSFRYHCRDMAILRARQLNIPIVLGTATP", "soluble on expression in E. coli": "not soluble"}
{"sequence": "SSEWMKKGPLEWQDYIYKEVRVTASEKNEYKGWVLTTDPVSANIVLVNFLEDGSMSVTGIMGHAVQTVETMNEGDHRVREKLMHLF", "soluble on expression in E. coli": "soluble"}
{"sequence": "SSFQTSLPRLPVPAVKDTVSRYLESVRPLMKEGDFQRMTALAQDFAVNLGPKLQWYLKLKSWWATNYVSDWWEEYIYLRGRGPIMVNSNYYAMEMLYITPTHIQAARAGNTIHAILLYRRTVDREELKPIRLLGSTIPLCSAQWERLFNTSRIPGEETDTIQHVKDSRHIVVYHRGRYFKVWLYHDGRLLRPRELEQQMQQILDDTSEPQPGEAKLAALTAADRVPWAKCRQTYFARGKNKQSLDAVEKAAFFVTLDESEQGYREEDPEASIDSYAKSLLHGRCFDRWFDKSITFVVFKNSKIGINAEHSWADAPIVGHLWEYVMATDVFQLGYSEDGHCKGDKNPNIPKPTRLQWDIPGECQEVIETSLSSASFLANDVDLHSFPFDTFGKGLIKKCRTSPDAFIQLALQLAHYKDMGKFCLTYEASMTRLFREGRTETVRSCTTESCNFVLAMMDPTTTAEQRFKLFKIACEKHQHLYRLAMTGAGIDRHLFCLYVVSKYLAVDSPFLKEVLSEPWRLSTSQTPQQQVELFDFEKYPDYVSCGGGFGPVADDGYGVSYIIVGENFIHFHISSKFSSPETDSHRFGKHLRQAMMDIITLFGLTANSKK", "soluble on expression in E. coli": "soluble"}
{"sequence": "SSHGHSHGGGGCRCAAEREEPPEQRGLAYGLYLRIDLERLQCLNESREGSGRGVFKPWEERTDRSKFVESDADEELLFNIPFTGNVKLKGIIIMGEDDDSHPSEMRLYKNIPQMSFDDTEREPDQTFSLNRDLTGELEYATKISRFSNVYHLSIHISKNFGADTTKVFYIGLRGEWTELRRHEVTICNYEASANPADHRVHQVTPQTHFIS", "soluble on expression in E. coli": "soluble"}
{"sequence": "SSKIILIPSNIPQEFPEASISNPERLRILAQVKDFIPHESTIVIDKVPTITSEQSTYINICIFNLLEACSSRVLVPGTLVNIDAFYDGESINPVDIYEVNGANFTMENIQLIDEMNNSIGKFN", "soluble on expression in E. coli": "soluble"}
{"sequence": "SSNKEGSGGFRKRKHDNFPHNQRREGKDVNSSSPVMLAFKSFQQELDARHDKYERLVKLSRDITVESKRTIFLLHRITSAPDMEDILTESEIKLDGVRQKIFQVAQELSGEDMHQFHRAITTGLQEYVEAVSFQHFIKTRSLISMDEINKQLIFTTEDNGKENKTPSSDAQDKQFGTWRLRVTPVDYLLGVADLTGELMRMCINSVGNGDIDTPFEVSQFLRQVYDGFSFIGNTGPYEVSKKLYTLKQSLAKVENACYALKVRGSEIPKHMLADVFSVKTEMIDQEEGIS", "soluble on expression in E. coli": "soluble"}
{"sequence": "SSNVIIMGHKFPDMDSIGAAIGILKVAQANNKDGFIVIDPNQIGSSVQRLIGEIKKYEELWSRFITPEEAMEISNDDTLLVIVDTHKPSLVMEERLVNKIEHIVVIDHHRRGEEFIRDPLLVYMEPYASSTAELVTELLEYQPKRLKINMIEATALLAGIIVDTKSFSLRTGSRTFDAASYLRAKGADTVLVQKFLKETV", "soluble on expression in E. coli": "not soluble"}
{"sequence": "SSQKSLFREDWFQNGSFVSLTLYIKDVDRDESNVTFTQQTVTVNLFSARDKSIYEQTWELSHPVVAEQSLVTYFPQKVELKMKKKEEGLLWKQLTSGATLKSSDNTQSSYSSRETASLQSGRFPKQFAVEEDDDEEQDQSKDLLAFFRDIYEKSDEDTRRAMVKSFVESQGKVLSTDWKKVSSQNSRYDNE", "soluble on expression in E. coli": "soluble"}
{"sequence": "SSRGSGILPDEFMFAEFKRQCLSTENWVNKYDKNDMEVWVEQAPLSASINNKGNYSKVHKIRCQINIKDVSAATMYDVLHDGQYRKTWDPTMLESFDIARLAHNADVGYYSWICPKPLKNRDVVTLRSWQASENEYVIINFSVKHPKYPPRKDLVRAVSLMTGYLIKPTGPQSCTFTYLSQADPKGSLPKWVVNKASQVLAPKVLRSAHKAGQNYPAWKAANSPDHKPWLYPIQSELAMMDPAELSIQRGDSLENVDESSTRDAQENEDSS", "soluble on expression in E. coli": "soluble"}
{"sequence": "SSSSQHFNLNFTITNLPYSQDIAQPSTTKYQQTKRSIENALNQLFRNSSIKSYFSDCQVLAFRSVSNNNNHTGVDSLCNFSPLARRVDRVAIYEEFLRMTHNGTQLLNFTLDRKSVFVD", "soluble on expression in E. coli": "soluble"}
{"sequence": "STEDSVKAVKRAADDDPHTETEHEDKKLKTDQEERKYPKKKVALLMAYSGKGYYGMQRNARNSQFKTIEDELVTALVGARCIPEGHAEEMKKMSFQRSARTDKGVSAVGRVVSLKVWMIENILEKINAHLPPRIRVLGCKRVTGGFNSKNNCYARTYSYMLPTVAFSPKDYNQEDTSFRLTSDTLQTVNRLFCLYKGTHNFHNFTSQKGHRDPSAMRYITHMSCGEPFIRKDVEFAVITVRGQSFMMHQIRKMIGLVIAVVKGYVDEGVMEKSWGEEKVGVSKAPGLGLVLERVHFDGYNKRFGGDGIHETLEWTEQEEAIADFKEKHIYPTIVDTELNERSMVNWMTSLCIHDFEETATGNQDRKDDDEDGSASD", "soluble on expression in E. coli": "soluble"}
{"sequence": "STEESMYTQIIKELPREGSSDVLVIKNEHVKKSDIWPSGGEMVVKDLTVKYMDDGNAVLENISFSISPGQRVGLLGRTGSGKSTLLSAFLRMLNIKGDIEIDGVSWNSVTLQEWRKAFGVITQKVFIFSGTFRQNLDPNGKWKDEEIWKVADEVGLKSVIEQFPGQLNFTLVDGGYVLSHGHKQLMCLARSVLSKAKIILLDQPSAHLDPITYQVIRRVLKQAFAGCTVILCEHRIEAMLDCQRFLVIEESNVWQYDSLQALLSEKSIFQQAISSSEKMRFFQGRHSSKHKPRTQITALKEETEEEVQETRL", "soluble on expression in E. coli": "not soluble"}
{"sequence": "STFRERLLHKNLQEHFSNQDLVFLLLTPSIITESCSTHRLEHSLYKPQKGLFHRVPLVVANLGMSEQLGYKTVSGSCMSTGFSRAVQTHSSKFFEEDGSLKEVHKINEMYASLQEELKSICKKVEDSEQAVDKLVKDVNRLKREIEKRRGAQIQAAREKNIQKDPQENIFLCQALRTFFPNSEFLHSCVMSLKNRHVSKSSCNYNHHLDVVDNLTLMVEHTDIPEASPASTPQIIKHKALDLDDRWQFKRSRLLDTQDKRSKADTGSSNQDKASKMSSPETDEEIEKMKGFGEYSRSPTF", "soluble on expression in E. coli": "not soluble"}
{"sequence": "STHSELMEKFLTDYLNDLQGRNDDDASGTWDFYGSSVCEPDDESGYDVLANPPGPEDQDDDDDAYSDVFEFEFSETPLLPCYNIQVSVAQGPRNWLLLSDVLKKLKMSSRIFRCNFPNVEIVTIAEAEFYRQVSASLLFSCSKDLEAFNPESKELLDLVEFTNEIQTLLGSSVEWLHPSDLASDNYW", "soluble on expression in E. coli": "soluble"}
{"sequence": "STQACPQPKTLDEFTIIQNLQPQYQFRDYFIATCKQGYQLIEGNQVLHSFTAVCQDDGTWHRAMPRCKIKDCGQPRNLPNGDFRYTTTMGVNTYKARIQYYCHEPYYKMQTRAGSRESEQGVYTCTAQGIWKNEQKGEKIPRCLPVCGKPVNPVEQRQR", "soluble on expression in E. coli": "soluble"}
{"sequence": "STQEQTPQICVVGSGPAGFYTAQHLLKHHSRAHVDIYEKQLVPFGLVRFGVAPDHPEVKNVINTFTQTARSDRCAFYGNVEVGRDVTVQELQDAYHAVVLSYGAEDHQALDIPGEELPGVFSARAFVGWYNGLPENRELAPDLSCDTAVILGQGNVALDVARILLTPPDHLEKTDITEAALGALRQSRVKTVWIVGRRGPLQVAFTIKELREMIQLPGTRPMLDPADFLGLQDRIKEAARPRKRLMELLLRTATEKPGVEEAARRASASRAWGLRFFRSPQQVLPSPDGRRAAGIRLAVTRLEGIGEATRAVPTGDVEDLPCGLVLSSIGYKSRPIDPSVPFDPKLGVVPNMEGRVVDVPGLYCSGWVKRGPTGVITTTMTDSFLTGQILLQDLKAGHLPSGPRPGSAFIKALLDSRGVWPVSFSDWEKLDAEEVSRGQASGKPREKLLDPQEMLRLLGH", "soluble on expression in E. coli": "soluble"}
{"sequence": "STQFINKLYASYLREKAYLTAQKHWEKDEIDEQSYQIIQRKYDELLPEAHEILLNMDSLSEVRDTLNKYLTQHQQALLIAGEDSVPFSFKYKDQLGAALYYPDNEGNFIVLVMSRNVYGAEIKE", "soluble on expression in E. coli": "not soluble"}
{"sequence": "STTLTHRARRTEISKNSEKKMESEEDSNWEKSPDNEDSGDSKDIRLTLMEEVLLLGLKDKEGYTSFWNDCISSGLRGGILIELAMRGRIYLEPPTMRKKRLLDRKVLLKSDSPTGDVLLDETLKHIKATEPTETVQTWIELLTGETWNPFKLQYQLRNVRERIAKNLVEKGILTTEKQNFLLFDMTTHPVTNTTEKQRLVKKLQDSVLERWVNDPQRMDKRTLALLVLAHSSDVLENVFSSLTDDKYDVAMNRAKDLVELDPEVEGTKPSATEMIWAVLAAFNKS", "soluble on expression in E. coli": "soluble"}
{"sequence": "SVGTSCIPGMAIPHNPLDSCRWYVSTRTCGVGPRLATQEMKARCCRQLEAIPAYCRCEAVRILMDGVVTSSGQHEGRLLQDLPGCPRQVQRAFAPKLVTEVECNLATIHGGPFCLSLLGAGE", "soluble on expression in E. coli": "soluble"}
{"sequence": "SYVQDYRSPFIASVSDQHGVVYITENKNKTVVIPCLGSISNLNVSLCARYPEKRFVPDGNRISWDSKKGFTIPSYMISYAGMVFCEAKINDESYQSIMYIVVVVGYRIYDVVLSPSHGIELSVGEKLVLNCTARTELNVGIDFNWEYPSSKHQHKKLVNRDLKTQSGSEMKKFLSTLTIDGVTRSDQGLYTCAASSGLMTKKNSTFVRVHEKPFVAFGSG", "soluble on expression in E. coli": "soluble"}
